Our source for the EC50 values is US20250186604A1, “ANTI-PSMA ANTIBODY CONJUGATES” (ADC THERAPEUTICS SA, priority 2023, published 2025).

The target of the assay is Human PSMA (Prostate-Specific Membrane Antigen) (human) (UniProt Q04609). The assay can be described thus: ELISA, human PSMA coated on plate, anti-human-IgG-HRP detection.
Human PSMA (Prostate-Specific Membrane Antigen) (human), sequence (Q04609 44-750 limits assumed): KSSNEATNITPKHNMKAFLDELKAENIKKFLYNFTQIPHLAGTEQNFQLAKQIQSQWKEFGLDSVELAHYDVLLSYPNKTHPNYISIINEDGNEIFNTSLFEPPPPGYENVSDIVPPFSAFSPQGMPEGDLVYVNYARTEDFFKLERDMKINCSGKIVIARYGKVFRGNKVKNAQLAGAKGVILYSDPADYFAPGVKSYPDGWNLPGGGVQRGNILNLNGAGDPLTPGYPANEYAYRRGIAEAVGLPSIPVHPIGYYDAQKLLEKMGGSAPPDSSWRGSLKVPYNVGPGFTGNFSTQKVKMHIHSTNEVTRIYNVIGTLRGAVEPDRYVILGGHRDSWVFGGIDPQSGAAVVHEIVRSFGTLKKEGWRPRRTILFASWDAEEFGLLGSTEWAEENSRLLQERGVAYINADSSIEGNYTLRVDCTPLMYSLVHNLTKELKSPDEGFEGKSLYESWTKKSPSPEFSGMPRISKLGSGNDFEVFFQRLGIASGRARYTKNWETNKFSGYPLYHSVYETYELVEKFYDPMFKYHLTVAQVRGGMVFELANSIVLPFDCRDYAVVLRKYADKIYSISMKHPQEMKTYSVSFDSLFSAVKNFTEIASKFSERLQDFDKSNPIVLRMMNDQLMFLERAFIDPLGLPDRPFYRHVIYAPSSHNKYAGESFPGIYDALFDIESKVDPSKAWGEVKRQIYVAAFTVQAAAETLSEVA

J591 (antibody) yielded a half-maximal effective concentration (EC50) of 0.271 nM. This lies in the sub-nanomolar range.
